Target: integrins αVβ3 and αVβ5
Experiment: inhibition of Ch-1 cell adhesion to coated PIIBNP by synthetic peptide (FIG. 3C)

IC50	Binder
10 µM	GRGDNP [synthetic GRGDNP peptide]
60 µM	GRADNP [synthetic GRADNP peptide]
